Our source for the koff values is article PMC12931240 (2025).

The assay concerns the target NP‐WT S nanoparticles (nanoparticles coated with WT spike proteins) (SARS-CoV-2). The assay is described as follows: SPR.

B1: P5‐1C8 IgG (full‐length) (antibody, V domains shown)
VH: EVQLVESGGGLIQPGGSLRLSCAASEIIVSRNYMNWVRQAPGKGLEWVSVIYSGGSTFYADSVKGRFTISRDNSENTLYLQMNSLRAEDTAVYYCARGYGDYYFDYWGRGTLVTVSS
VL: not shown
In the case of B1, the off-rate constant (koff) (commonly the rate constant with which the complex falls apart) was determined as 2.19e-05 s⁻¹.
